In patent US11407825B2, “NaPi2b-targeted polymer antibody-drug conjugates and methods of use thereof” (Mersana Therapeutics, Inc., priority 2018, dated 2022):

Tested on: NaPi2b expressing tumors
Assay: Phase 1b study of XMT-1536: duration on study and reason for discontinuation
Type: in vivo, human
Source text: The study presented herein is an open label, multi-center Phase 1b study of XMT-1536 administered as an intravenous infusion once every three or four weeks. The dose escalation (DES) part of the study will establish the maximum tolerated dose (MTD) or recommended Phase 2 dose (RP2D) for XMT-1536 in patients with a number of tumor types likely to express NaPi2b, with a focus on patients with platinum-resistant ovarian cancer and non-squamous non-small cell lung cancer (NSCLC). […] The RP2D may differ from the MTD and may take into account tolerability, pharmacokinetic and pharmacodynamic measures, and efficacy of XMT-1536 based on RECIST 1.1. After the first cycle, patients may continue to receive XMT-1536 until disease progression provided the drug is well-tolerated and patients continue to derive clinical benefit in the opinion of the Investigator. The DES segment of the study utilized an accelerated titration design. The first 3-week cycle of treatment constitutes the dose limiting toxicity (DLT) evaluation period. For the first two dose levels, a minimum of 1 patient was treated at each dose level. If this patient experiences a treatment-emergent adverse event of Grade 2 or higher, 2 additional patients will be added at this dose level, and the study will subsequently follow a 3+3 design, as described below. […] Starting with Dose Level 3, the study will follow a standard 3+3 design, with 3 patients enrolled initially at each dose level. […] However, in the event of 1 DLT, 3 additional patients will be enrolled at the same dose level. Any dose level with 2 or more DLTs will be considered to exceed the MTD and subsequent patients will be enrolled at lower dose level(s). After the first cycle, patients may continue to receive XMT-1536 until disease progression if the drug is well-tolerated and patients continue to derive clinical benefit in the opinion of the Investigator.
After an August 2018 protocol amendment, each cycle will be 4-week (28 day) dose cycle. The first two, 4-week cycles of treatment (56 days) constitutes the dose limiting toxicity (DLT) evaluation period. Beginning with this amendment, up to 10 patients will be enrolled for evaluation at 20.0 mg/m^2 under the new 4-week cycle dose regimen. If that dose is cleared by the SRC, subsequent dose groups will follow a modified 3+3 design. Three patients will be enrolled initially and if toxicity issues arise, the SRC will review all pertinent data and may decide to add more patients to fully evaluate a dose in question and/or lower the dose. […] The observation period for DLTs is 56 days, between Day 1 through the end of Cycle 2 which includes the pre-dose assessments before receiving the Cycle 3 dose. A maximum of ten patients will be enrolled per dose level prior to the SRM. that will be conducted no later than 5 days after at least the sixth patient dosed in each level has completed Cycle 2, Day 28 evaluations. The data available for the patients dosed in all prior will be factored into the data review for each applicable dose escalation SRM. Any dose level with 2 or more DLTs occurring in 6 or fewer treated patients will be considered to exceed the MTD and subsequent patients will be enrolled at lower dose level(s). After the second cycle, patients may continue to receive XMT-1536 until disease progression if the drug is well-tolerated and patients continue to derive clinical benefit in the opinion of the Investigator. After completion of DES, the EXP segment of the study will be opened.
Treatment will continue indefinitely unless one of the following occurs: disease progression, inter-current illness that prevents further administration of treatment, unacceptable adverse events or pregnancy, patient non-compliance with the protocol, patient withdraws consent for participation from the study, and/or general or specific changes in the patient's condition render the patient unacceptable for further treatment in the judgment of the Investigator.

[1] = doses of 20 mg/m^2 and higher (n=18)

B1: XMT-1536: about 10-15 molecules of auristatin F-hydroxypropyl amide conjugated to a cysteine moiety of NaPi2b monoclonal antibody XMT-1535 via a PHF scaffold (conjugate, chains of the INN, looked up)
VH: QVQLVQSGAEVVKPGASVKMSCKASGYTFTGYNIHWVKQAPGQGLEWIGAIYPGNGDTSYKQKFRGRATLTADTSTSTVYMELSSLRSEDSAVYYCARGETARATFAYWGQGTLVTVSS
VL: DIQMTQSPSSLSASVGDRVTITCSASQDIGNFLNWYQQKPGKTVKVLIYYTSSLYSGVPSRFSGSGSGTDYTLTISSLQPEDFATYYCQQYSKLPLTFGQGTKLELK
modifications: auristatin F-hydroxypropyl amide via PHF scaffold
notes: about 10-15 molecules of auristatin F-hydroxypropyl amide conjugated to a cysteine moiety of NaPi2b monoclonal antibody XMT-1535 via a PHF scaffold
For B1, the “Treatment duration >16 weeks” value (All NSCLC, N 3) was 33%, the “Treatment duration >16 weeks, patients” value (All NSCLC, N 3) was 1 and the “Treatment duration >16 weeks” value (All Ovarian Cancer (OC), N 19) was 42%. The “Treatment duration >16 weeks, patients” value (All Ovarian Cancer (OC), N 19) was 8, the “discontinued for Progressive Disease per RECIST, patients” value (“discontinued … per RECIST, patients” below) (DL1 3 mg/m^2, n = 1) was 1 and the “discontinued … per RECIST, patients” value (DL2 6 mg/m^2, n = 1) was 1. For the same molecule, the “discontinued for Clinical Progression, patients” value (DL3 12 mg/m^2, n = 7) was 4, the “discontinued … per RECIST, patients” value (DL3 12 mg/m^2, n = 7) was 3 and the “discontinued for Clinical Progression, patients” value (DL4 & 4A 20 mg/m^2, n = 13) was 2. The “discontinued … per RECIST, patients” value (DL4 & 4A 20 mg/m^2, n = 13) was 7, the “discontinued for Clinical Progression, patients” value (DL5 & 5A 30 mg/m^2, n = 11) was 3 and the “discontinued … per RECIST, patients” value (DL5 & 5A 30 mg/m^2, n = 11) was 6. The “Treatment duration >16 weeks” value (NSCLC ≥ 20 mg/m^2, N 2) was 50%, the “Treatment duration >16 weeks, patients” value (NSCLC ≥ 20 mg/m^2, N 2) was 1 and the “Treatment duration >16 weeks” value (OC + NSCLC ≥ 20 mg/m^2, N 18) was 56%. The “Treatment duration >16 weeks, patients” value (OC + NSCLC ≥ 20 mg/m^2, N 18) was 10, the “Treatment duration >16 weeks” value (OC ≥ 20 mg/m^2, N 16) was 57% and the “Treatment duration >16 weeks, patients” value (OC ≥ 20 mg/m^2, N 16) was 9. For the same molecule, the “Treatment duration >16 weeks” value (OC ≥ 30 mg/m^2, N 7) was 43%, the “Treatment duration >16 weeks, patients” value (OC ≥ 30 mg/m^2, N 7) was 3 and the “discontinued for Clinical Progression” value (Total, n = 34) was “(26%)”. The “discontinued for Clinical Progression, patients” value (Total, n = 34) was 9, the “discontinued for Progressive Disease per RECIST” value (Total, n = 34) was “(53%)” and the “discontinued … per RECIST, patients” value (Total, n = 34) was 18. For the same molecule, the “treatment duration of >16 weeks” value [1] was 50% and the “treatment duration of >16 weeks, patients” value [1] was 9.
